Tests used:
[1] = biological target: T1, core protein gp16 (bacteriophage T7), P03726; assay: cryo-EM structure; mature T7 virions, in situ; entire particle asymmetric 6.1 Å; local reconstructions of core complex 3 Å (four-fold), portal 2.5 Å (twelve-fold), portal–tail complex 2.7 Å (six-fold); conditions: remark: other sources report otherwise
T1 chain: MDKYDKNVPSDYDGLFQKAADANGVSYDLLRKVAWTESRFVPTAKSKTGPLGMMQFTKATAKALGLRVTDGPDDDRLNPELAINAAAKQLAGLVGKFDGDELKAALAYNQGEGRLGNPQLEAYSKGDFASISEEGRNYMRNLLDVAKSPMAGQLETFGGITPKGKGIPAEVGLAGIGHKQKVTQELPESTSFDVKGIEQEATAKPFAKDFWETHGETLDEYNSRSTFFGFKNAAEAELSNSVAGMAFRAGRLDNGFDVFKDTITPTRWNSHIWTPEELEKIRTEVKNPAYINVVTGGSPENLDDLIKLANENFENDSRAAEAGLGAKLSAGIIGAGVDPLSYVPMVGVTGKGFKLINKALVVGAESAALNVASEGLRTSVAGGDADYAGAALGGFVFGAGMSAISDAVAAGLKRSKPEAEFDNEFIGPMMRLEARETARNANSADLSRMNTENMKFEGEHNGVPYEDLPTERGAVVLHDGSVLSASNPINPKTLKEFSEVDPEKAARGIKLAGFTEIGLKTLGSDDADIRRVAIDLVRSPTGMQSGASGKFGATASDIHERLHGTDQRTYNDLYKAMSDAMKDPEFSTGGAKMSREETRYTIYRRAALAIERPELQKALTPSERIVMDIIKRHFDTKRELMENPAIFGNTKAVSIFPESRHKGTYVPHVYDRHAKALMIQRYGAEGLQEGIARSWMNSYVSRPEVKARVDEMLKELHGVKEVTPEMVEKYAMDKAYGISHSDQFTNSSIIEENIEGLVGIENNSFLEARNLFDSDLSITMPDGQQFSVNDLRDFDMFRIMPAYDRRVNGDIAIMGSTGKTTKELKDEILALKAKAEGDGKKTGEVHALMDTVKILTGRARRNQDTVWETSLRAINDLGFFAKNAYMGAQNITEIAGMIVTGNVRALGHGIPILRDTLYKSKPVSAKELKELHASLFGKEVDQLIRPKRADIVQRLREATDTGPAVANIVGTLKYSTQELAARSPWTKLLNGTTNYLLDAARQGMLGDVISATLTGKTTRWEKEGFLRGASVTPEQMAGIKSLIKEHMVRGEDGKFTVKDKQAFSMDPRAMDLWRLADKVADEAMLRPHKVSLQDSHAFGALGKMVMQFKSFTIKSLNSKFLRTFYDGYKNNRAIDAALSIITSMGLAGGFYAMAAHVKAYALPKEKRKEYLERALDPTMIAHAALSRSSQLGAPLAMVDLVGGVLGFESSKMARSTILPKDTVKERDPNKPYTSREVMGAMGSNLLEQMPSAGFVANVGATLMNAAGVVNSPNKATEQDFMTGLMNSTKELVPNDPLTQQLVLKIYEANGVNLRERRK

nozzle protein gp12 = biological target: T2, nozzle protein gp12 (bacteriophage T7, UniProt P03747 1-794); assay: cryo-EM structure; DNA-ejected T7: purified mature T7 incubated with rough LPS (250 µg/mL) at 37°C for 3 h; entire particle asymmetric 8.2 Å; portal–tail complex 3.5 Å (six-fold); conditions: both partners purified
T2 construct: nozzle protein gp12 of bacteriophage T7, as it stands in the virion; Native virion protein; also called tail nozzle; source: T7 virions propagated in E. coli, purified (PEG precipitation, CsCl ultracentrifugation)
T2 sequence (looked up): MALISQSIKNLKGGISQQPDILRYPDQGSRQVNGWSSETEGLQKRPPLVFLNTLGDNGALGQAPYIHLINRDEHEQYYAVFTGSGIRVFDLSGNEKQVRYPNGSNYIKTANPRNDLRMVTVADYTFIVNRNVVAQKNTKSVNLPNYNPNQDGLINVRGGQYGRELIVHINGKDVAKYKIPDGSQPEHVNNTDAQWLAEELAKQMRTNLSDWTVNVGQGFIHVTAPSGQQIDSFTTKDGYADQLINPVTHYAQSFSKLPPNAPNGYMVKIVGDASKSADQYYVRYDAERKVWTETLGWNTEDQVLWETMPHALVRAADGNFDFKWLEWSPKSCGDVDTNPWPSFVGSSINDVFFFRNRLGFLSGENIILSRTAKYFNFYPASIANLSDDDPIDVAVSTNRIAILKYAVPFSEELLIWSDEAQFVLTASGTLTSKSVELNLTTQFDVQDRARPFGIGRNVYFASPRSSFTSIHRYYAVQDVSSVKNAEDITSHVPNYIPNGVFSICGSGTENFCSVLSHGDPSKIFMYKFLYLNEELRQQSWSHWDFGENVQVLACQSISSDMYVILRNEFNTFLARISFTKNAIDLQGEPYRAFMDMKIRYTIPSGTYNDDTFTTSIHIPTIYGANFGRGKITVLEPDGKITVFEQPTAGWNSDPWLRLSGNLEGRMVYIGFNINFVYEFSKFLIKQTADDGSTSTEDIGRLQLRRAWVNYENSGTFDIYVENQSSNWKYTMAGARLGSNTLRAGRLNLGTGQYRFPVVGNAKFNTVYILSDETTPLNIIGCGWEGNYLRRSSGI

core protein gp15 = biological target: T3, core protein gp15 (bacteriophage T7, UniProt P03725 1-747); assay: cryo-EM structure; mature T7 virions, in situ; entire particle asymmetric 6.1 Å; local reconstructions of core complex 3 Å (four-fold), portal 2.5 Å (twelve-fold), portal–tail complex 2.7 Å (six-fold); conditions: both partners purified
T3 construct: core protein gp15 of bacteriophage T7, as it stands in the mature virion; Eight-fold ring in the core of mature T7; source: T7 virions propagated in E. coli, purified (PEG precipitation, CsCl ultracentrifugation)
T3 sequence (looked up): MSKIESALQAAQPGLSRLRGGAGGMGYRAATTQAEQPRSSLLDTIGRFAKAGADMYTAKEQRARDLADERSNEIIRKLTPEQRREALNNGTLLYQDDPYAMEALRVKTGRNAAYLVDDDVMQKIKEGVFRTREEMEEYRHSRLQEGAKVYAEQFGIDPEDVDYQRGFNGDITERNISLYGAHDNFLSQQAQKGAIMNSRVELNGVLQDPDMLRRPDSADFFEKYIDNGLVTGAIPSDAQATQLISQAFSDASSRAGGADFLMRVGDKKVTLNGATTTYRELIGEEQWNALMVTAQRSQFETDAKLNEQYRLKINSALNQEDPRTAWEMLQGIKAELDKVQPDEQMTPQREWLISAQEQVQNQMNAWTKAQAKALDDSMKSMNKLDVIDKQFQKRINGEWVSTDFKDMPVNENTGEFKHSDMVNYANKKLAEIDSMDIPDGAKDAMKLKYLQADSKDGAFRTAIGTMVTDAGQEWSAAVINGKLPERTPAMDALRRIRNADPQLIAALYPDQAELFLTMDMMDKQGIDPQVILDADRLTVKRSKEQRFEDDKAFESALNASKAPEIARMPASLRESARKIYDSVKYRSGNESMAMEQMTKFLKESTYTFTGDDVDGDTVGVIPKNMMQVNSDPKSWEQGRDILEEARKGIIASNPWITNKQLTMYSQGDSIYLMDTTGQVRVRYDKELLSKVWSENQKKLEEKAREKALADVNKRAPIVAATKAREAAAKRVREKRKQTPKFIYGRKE

portal protein gp8 = biological target: T4, portal protein gp8 (bacteriophage T7, UniProt P03728 1-536); assay: as above; conditions: both partners purified
T4 construct: portal protein gp8 of bacteriophage T7, as it stands in the virion; Native virion protein; also called dodecameric portal; source: T7 virions propagated in E. coli, purified (PEG precipitation, CsCl ultracentrifugation); copies: 12
T4 sequence (looked up): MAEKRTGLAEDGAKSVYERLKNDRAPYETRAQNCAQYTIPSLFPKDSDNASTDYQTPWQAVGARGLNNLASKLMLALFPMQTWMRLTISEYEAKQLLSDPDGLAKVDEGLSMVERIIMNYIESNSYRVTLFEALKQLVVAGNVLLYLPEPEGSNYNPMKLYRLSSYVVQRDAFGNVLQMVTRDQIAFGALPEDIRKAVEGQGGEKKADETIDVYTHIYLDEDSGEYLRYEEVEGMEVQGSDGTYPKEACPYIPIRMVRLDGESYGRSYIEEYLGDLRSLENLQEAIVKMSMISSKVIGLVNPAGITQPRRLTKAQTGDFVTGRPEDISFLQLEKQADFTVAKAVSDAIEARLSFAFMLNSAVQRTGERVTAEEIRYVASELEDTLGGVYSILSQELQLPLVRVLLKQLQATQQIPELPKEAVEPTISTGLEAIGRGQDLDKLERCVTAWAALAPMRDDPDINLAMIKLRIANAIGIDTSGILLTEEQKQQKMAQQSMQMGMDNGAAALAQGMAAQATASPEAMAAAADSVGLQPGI

core protein gp14 = biological target: T5, core protein gp14 (bacteriophage T7, UniProt P03724 1-196); assay: as above; conditions: both partners purified
T5 construct: core protein gp14 of bacteriophage T7, 196 residues as printed; modelled residues 4-86 and 101-129 in mature T7, 25-143 in DNA-ejected T7; Eight copies resolved in the mature virion, six copies in the extended channel of DNA-ejected T7; source: T7 virions propagated in E. coli, purified (PEG precipitation, CsCl ultracentrifugation)
T5 sequence (looked up): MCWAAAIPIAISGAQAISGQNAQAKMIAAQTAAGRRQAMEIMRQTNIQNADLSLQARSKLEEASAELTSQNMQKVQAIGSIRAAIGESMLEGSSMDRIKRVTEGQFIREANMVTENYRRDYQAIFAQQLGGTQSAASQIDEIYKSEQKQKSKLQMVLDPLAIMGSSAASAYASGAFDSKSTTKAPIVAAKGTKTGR

B1: core protein gp16, P03726 1-1318 (natural protein)
chain: T1 chain
- stoichiometry N [1]: 4

B2: small protein gp6.7 (natural protein, bacteriophage T7, UniProt P03801 1-88, looked up)
chain: MCFSPKIKTPKMDTNQIRAVEPAPLTQEVSSVEFGGSSDETDTEGTEVSGRKGLKVERDDSVAKSKASGNGSARMKSSIRKSAFGGKK
notes: gp6.7 of bacteriophage T7, 88 residues as printed; modelled loop I (2-15) and loop II (34-50) in mature T7, conformer A 11-41 and conformer B 11-59 in DNA-ejected T7; Twelve copies in the mature virion and in the extended channel of DNA-ejected T7; also called core protein gp6.7; source: T7 virions propagated in E. coli, purified (PEG precipitation, CsCl ultracentrifugation)
- binding result (nozzle protein gp12): binds
- binding result (core protein gp15): binds
- binding result (portal protein gp8): binds
- binding result (core protein gp14): binds
